The term Kd denotes a measure of binding affinity in units of concentration. A low value points to tighter binding.

Like-named read-outs stand apart in the source and are kept apart here.

The target of experiment [1] is T1, Taxol-stabilized microtubules assembled from bovine brain tubulin (bovine, UniProt Q6B856 1-445).
Experiment [2] addresses T1, Taxol-stabilized microtubules assembled …. Briefly: co-sedimentation.

B1: Ase1 (natural protein, yeast, UniProt P50275 1-885, looked up)
chain: METATSSPLPIKSRRNSENSGSTTVIPHMNPSLATPLTVSTMVNQSNSKEFMKLTPVRIRDFGSPLKNVSTNYHFLDSENGKGNTMDNMYRENFILISKDLEKLLENLNVIYQNIGYSNTEIITKEKIIFTTISNSIKQFFEQADEELKRLSAENGIEQDILNNILERINDPSGIKTIPDLYIRNAILLQESKTVPQSPKKPLSLLSKKAALDTAKKFVLGSFLPRLRDYLKSLITLKHLIQSVKENLPGLTEADNEAIAEFPELSTLTAYLLQIENGKGDIGLSMKFIIDNRKDILKGSAFKTINEESVKHMNEVIKIYEEEYERRFKSVLTKKVSISSICEQLGTPLATLIGEDFEQDLRSYGEEENSTSEIPNFHPVDRERMSKIDITLEKLQAIHKERADKKRLLMEQCQKLWTRLKISQEYIKTFMRNNSSLSTESLGRISKEVMRLEAMKKKLIKKLISDSWDKIQELWRTLQYSEESRSKFIIVFEELRNSATTLQEDELLLETCENELKRLEEKLTLYKPILKLISDFESLQEDQEFLERSSKDSSRLLSRNSHKILLTEEKMRKRITRHFPRVINDLRIKLEEADGLFDQPFLFKGKPLSEAIDIQQQEIEAKYPRCRVRMQRSKKGKCGANKENKVIKNTFKATESSIRVPIGLNLNDANITYKTPSKKTIQGLTKNDLSQENSLARHMQGTTKLSSPNRRATRLLAPTVISRNSKGNIERPTLNRNRSSDLSSSPRINHTHGEHAVKPRQLFPIPLNKVDTKGSHIPQLTKEKALELLKRSTGTTGKENVRSPERKSSLEDYAQKLSSPYKEPEHSIYKLSMSPEGKFQLNIQQKDIESGFDDTSMMEDENDKDFITWKNEQVSKLNGFSFTDI
On to B1, for which the Kd in experiment [1] was determined as 41 ± 7 nM.

B2: MAP65-4 (GFP-MAP65-4) (natural protein, Arabidopsis thaliana, UniProt Q9LZY0 1-677, looked up)
chain: MIRNSTEQFSRIETTCGLLLRQLQEIWNEMGETEDEKDASLADIEKECLSVYKRKVEEASRGKANLLKEIAVGRAEIAAIGSSMGGQEIHSNSRLGENLKEELENVNVQLDGLRKRKAERMIRFNEVIDQLLKLSLQLGNPTDYLKKFAAEETDLSLQRLEELRSQLGELQNEKSKRLEEVECLLKTLNSLCSVLGEDFKGMIRGIHSSLVDSNTRDVSRSTLDKLDMMIVNLREAKLQRMQKVQDLAVSLLELWNLLDTPAEEQKIFHNVTCSIALTESEITEANILSVASIKRVEDEVIRLSKIKITKIKEVILRKRLELEEISRKMHMATEVLKSENFSVEAIESGVKDPEQLLEQIDSEIAKVKEEASSRKEILEKVEKWMSACEEESWLEEYNRDDNRYNAGRGAHLTLKRAEKARLLVNKLPGMVEALTAKVTAWENERGNEFLYDGVRVLSMLGQYKTVWEEKEHEKQRQRDMKKLHGQLITEQEALYGSKPSPNKSGKKPLRTPVNAAMNRKLSLGGAMLHQSLKHEKATLNSKRTKYYDQNATSRRDSALPTLSGRRNSELPGRIRSKNVPVAGKAARSPMLRKPLSPVTSNILNSPEDHHKDAYTTKERILTPKTNEEKKRAVPTTPAASVAMTEATTPFTPAVEKRMDEEDVIVEYSFEEVRAGFC
Molecule B2 came in with a Kd in experiment [2] of 19 ± 2 nM.

B3: MAP65-1 (GFP-MAP65-1) (natural protein, Arabidopsis thaliana, UniProt Q9FLP0 1-587, looked up)
chain: MAVTDTESPHLGEITCGTLLEKLQEIWDEVGESDDERDKLLLQIEQECLDVYKRKVEQAAKSRAELLQTLSDANAELSSLTMSLGDKSLVGIPDKSSGTIKEQLAAIAPALEQLWQQKEERVREFSDVQSQIQKICGDIAGGLSNEVPIVDESDLSLKKLDDFQSQLQELQKEKSDRLRKVLEFVSTVHDLCAVLGLDFLSTVTEVHPSLDEDTSVQSKSISNETLSRLAKTVLTLKDDKKQRLQKLQELATQLIDLWNLMDTPDEERELFDHVTCNISSSVDEVTVPGALARDLIEQAEVEVDRLDQLKASRMKEIAFKKQSELEEIYARAHVEVNPESARERIMSLIDSGNVEPTELLADMDSQISKAKEEAFSRKDILDRVEKWMSACEEESWLEDYNRDQNRYSASRGAHLNLKRAEKARILVSKIPAMVDTLVAKTRAWEEEHSMSFAYDGVPLLAMLDEYGMLRQEREEEKRRLREQKKVQEQPHVEQESAFSTRPSPARPVSAKKTVGPRANNGGANGTHNRRLSLNANQNGSRSTAKEAGRRETLNRPAAPTNYVAISKEEAASSPVSGAADHQVPASP
In experiment [2], B3 returned a Kd of 21 ± 2 nM.

Source of the values: paper PMC3681700 (Molecular Biology of the Cell, 2013).
